Data: patent US20240294661A1 (Genmab, published 2024)
Changes are numbered by the printed parent chain.

B1: Anti-TF HuMab 111 (antibody, IgG1, V domains shown)
VH: QVQLVESGGGVVQPGRSLRLSCAGSGFTFNRYAMYWVRQAPGKGLDWVAVISNDGINKYYADSVKGRFTISRDNSKNTLYLQMNSLRAEDTAVYYCARDHTMVRGAFDYWGQGTLVTVSS
VL: EIVLTQSPATLSLSPGERATLSCRASQSVSSYLAWYQQKPGQAPRLLIYDASNRATGIPARFSGSGSGTDFTLTISSLEPEDFAVYYCQQRSNWPLTFGGGTKVEIK
notes: full length, fully human monoclonal IgG1,kappa
B2: Anti-TF HuMab 098 (antibody, IgG1, V domains shown)
VH: QVQLVQSGAEVRKPGSSVKVSCKASGGSFNNYPIFWVRQAPGQGFEWMGRIIPILGITAYAQKFQGRVTITADKSTSTAYMELNSLRSEDTAVYYCAGGDDLDAFDIWGQGTMVSVSS
VL: DIQMTQSPSSLSASVGDRVTITCRASQGISSWLAWYQQKPEKAPKSLIYAASSLQSGVPSRFSGSGSGTDFTLTISSLQPEDFATYYCQQYNSYPYTFGQGTKLEIK
notes: full length, fully human monoclonal IgG1,kappa; also called HuMab-TF-098
B3: HuMab-TF-013 (antibody, V domains shown)
VH: EVQLVQSGAEVKKPGESLKISCKGSGYSFTSYWIGWVRQMPGKGLEWMGIIYPGDSDTRYSPSFQGQVTISADKSISTAYLQWSSLKASDTAMYYCARIHRGAGYSSSWPGAFDIWGQGTMVTVSS
VL: B2 VL with S31R, N92D, Y94D, Y96I, K103R
B4: Anti-TF HuMab 011 (antibody, IgG1, V domains shown)
VH: EVQLLESGGGLVQPGGSLRLSCAASGFTFSNYAMSWVRQAPGKGLEWVSSISGSGDYTYYTDSVKGRFTISRDNSKNTLYLQMNSLRAEDTAVYYCARSPWGYYLDSWGQGTLVTVSS
VL: B2 VL with S9P, V15A, W32R
notes: full length, fully human monoclonal IgG1,kappa; also called HuMab-TF-011
B5: HuMab-TF-044 (antibody, V domains shown)
VH: QVQLVESGGGVVQPGRSLRLSCAASGFTFSDYAMHWVRQAPGKGLEWVAVIPYDGDNKYYADSVKGRFTISRDNSKNTLYLQMNSLRAEDTAVYYCAREDWGLEVDYWGQGALVTVSS
VL: AIQLTQSPSSLSASVGDRVTITCRASQGINSALAWYQQKPGKAPKLLIYDASSLESGVPSRFSGSGSGTDFTLTISSLQPEDFATYYCQQFNSYPLTFGGGTKVEIK
B6: HuMab-TF-111-vcMMAE (antibody, IgG1, V domains shown)
VH: B1 VH
VL: B1 VL
modifications: vcMMAE drug-linker alkylated to cysteines of the reduced antibody (positions not given)
notes: DAR 4.3 by RP-HPLC, 4.1 by HIC
B7: HuMab-TF-111-mcMMAF (antibody, IgG1, V domains shown)
VH: B1 VH
VL: B1 VL
modifications: mcMMAF drug-linker alkylated to cysteines of the reduced antibody (positions not given)
notes: DAR 4.1 by RP-HPLC, 4.2 by HIC
B8: HuMab-TF-098-mcMMAF (antibody, IgG1, V domains shown)
VH: B2 VH
VL: B2 VL
modifications: mcMMAF drug-linker alkylated to cysteines of the reduced antibody (positions not given)
notes: DAR 4.0 by RP-HPLC, 3.9 by HIC
B9: HuMab-TF-098-vcMMAE (antibody, IgG1, V domains shown)
VH: B2 VH
VL: B2 VL
modifications: vcMMAE drug-linker alkylated to cysteines of the reduced antibody (positions not given)
notes: DAR 3.9 by RP-HPLC, 3.7 by HIC
B10: HuMab-TF-011-vcMMAE (antibody, IgG1, V domains shown)
VH: B4 VH
VL: B2 VL with S9P, V15A, W32R
modifications: vcMMAE drug-linker alkylated to cysteines of the reduced antibody (positions not given)
notes: DAR 3.9 by RP-HPLC, 3.9 by HIC
B11: HuMab-TF-011-mcMMAF (antibody, IgG1, V domains shown)
VH: B4 VH
VL: B2 VL with S9P, V15A, W32R
modifications: mcMMAF drug-linker alkylated to cysteines of the reduced antibody (positions not given)
notes: DAR 3.9 by RP-HPLC, 4.1 by HIC

The binders below were run against T1, membrane-bound tissue factor (TF) on cells (human, UniProt P13726 33-295) (assay: cell-based or functional assay).
In the case of B1, the “% kill, A431 cells, anti-kappa-ETA' assay” value (“% kill, A431 cells” below) is reported as 92%, the “% kill, BxPC3 cells, anti-kappa-ETA' assay” value (“% kill, BxPC3 cells” below) is reported as 98% and the “% kill, MDA-MB-231 cells, anti-kappa-ETA' assay” value (“% kill, MDA-MB-231 cells” for short) is reported as 88%. For the same binder, the “EC50 of cell killing, A431 cells, anti-kappa-ETA' assay” value (shortened to “EC50 of cell killing, A431 cells”) was 34 ng/mL, the “EC50 of cell killing, BxPC3 cells, anti-kappa-ETA' assay” value (“EC50 of cell killing, BxPC3 cells” below) was 15 ng/mL and the “EC50 of cell killing, MDA-MB-231 cells, anti-kappa-ETA' assay” value (shortened to “EC50 of cell killing, MDA-MB-231 cells”) was 23 ng/mL.
With B2 the “% kill, A431 cells” value was 95%, the “% kill, BxPC3 cells” value was 99% and the “% kill, MDA-MB-231 cells” value was 96%. For the same binder, the “EC50 of cell killing, A431 cells” value was 0.09 ng/mL, the “EC50 of cell killing, BxPC3 cells” value was 0.013 ng/mL and the “EC50 of cell killing, MDA-MB-231 cells” value was 0.72 ng/mL.
B3 was tested, and the “% kill, A431 cells” value was 80%, the “% kill, BxPC3 cells” value was 96% and the “% kill, MDA-MB-231 cells” value was 56%. For the same binder, the “EC50 of cell killing, A431 cells” value was 20 ng/mL and the “EC50 of cell killing, BxPC3 cells” value was 9.4 ng/mL.
With B4 the “% kill, A431 cells” value was 96%, the “% kill, BxPC3 cells” value was 98% and the “% kill, MDA-MB-231 cells” value was 88%. The “EC50 of cell killing, A431 cells” value was 0.39 ng/mL, the “EC50 of cell killing, BxPC3 cells” value was 0.26 ng/mL and the “EC50 of cell killing, MDA-MB-231 cells” value was 3 ng/mL.
B5 was tested, and the “% kill, A431 cells” value was 66%, the “% kill, BxPC3 cells” value was 96% and the “% kill, MDA-MB-231 cells” value was 44%. The “EC50 of cell killing, A431 cells” value was 98 ng/mL and the “EC50 of cell killing, BxPC3 cells” value was 15 ng/mL.

What follows are binders tested against T2, TFECDHis (extracellular domain of tissue factor, amino acid 1-251, with C-terminal His tag) (human, UniProt P13726 33-251) (assay: ELISA, coated TFECDHis).
T2 construct: range 1-251; The stated range 1-251 starts at residue 1 of the precursor; also called recombinant extracellular domain of TF
Protocol: (§1) Binding of the anti-TF ADCs to TF was measured by ELISA (coated recombinant extracellular domain of TF) and compared with binding of unconjugated anti-TF HuMabs. […] ELISA plates were washed three times with PBS containing 0.05% Tween-20 (PBST), blocked with 200 µL/well PBST at RT for 1 h while shaking (300 rpm), washed three times with PBST and emptied. Subsequently, 100 μl anti-TF ADCs or unconjugated anti-TF HuMabs were added in serial dilutions in PBST and incubated while shaking at RT for 90 min. ELISA plates were washed three times with PBST and emptied. […] Plates were washed three times with PBST, emptied and incubated with 100 μL ABTS solution (50 ml ABTS buffer [Roche] and one ABTS tablet [50 mg; Roche]). After incubation in the dark at RT for 30 min, the reaction was stopped by incubation with 100 μL per well oxalic acid (2% [w/v]; Riedel de Haen) in the dark, for 10 min. Plates were measured at OD 405 nm in an ELISA reader (Biotek Instruments, EL808 Absorbance Microplate Reader).
(§2) Binding curves were analyzed by non-linear regression (sigmoidal dose-response with variable slope) using GraphPad Prism 5 software (GraphPad Software, San Diego, CA, USA).
B1 was tested, and the EC50 was 377 ng/mL.
In the case of B6, the EC50 is reported as 464 ng/mL.
Work on B7 yielded an EC50 of 416 ng/mL.
B2 gave an EC50 of 422 ng/mL.
For B8, the EC50 was 401 ng/mL.
For B9, the EC50 was 426 ng/mL.
B4 gave an EC50 of 373 ng/mL.
Binder B10 has an EC50 of 469 ng/mL.
Work on B11 yielded an EC50 of 431 ng/mL.

Biological target: T1, membrane-bound tissue factor (TF) on …
Assay: cell-based or functional assay
Remark: another data set of the same source
With B6 the “% kill at 10 µg/mL, A431 cells, ADC killing assay” value (from here on “% kill at 10 µg/mL, A431 cells”) was 90%, the “% kill at 10 µg/mL, HPAF-II cells, ADC killing assay” value (“% kill at 10 µg/mL, HPAF-II cells” for short) was 73% and the “% kill at 10 µg/mL, NCI-H441 cells, ADC killing assay” value (“% kill at 10 µg/mL, NCI-H441 cells” below) was 51%. For the same binder, the “IC50 of cell killing, A431 cells, ADC killing assay” value (“IC50 of cell killing, A431 cells” below) was 46 ng/mL, the “IC50 of cell killing, HPAF-II cells, ADC killing assay” value (from here on “IC50 of cell killing, HPAF-II cells”) was 4 ng/mL and the “IC50 of cell killing, NCI-H441 cells, ADC killing assay” value (from here on “IC50 of cell killing, NCI-H441 cells”) was 416 ng/mL.
B7 was tested, and the “% kill at 10 µg/mL, A431 cells” value was 73%, the “% kill at 10 µg/mL, HPAF-II cells” value was 74% and the “% kill at 10 µg/mL, NCI-H441 cells” value was 62%. The “IC50 of cell killing, A431 cells” value was 83 ng/mL, the “IC50 of cell killing, HPAF-II cells” value was 15 ng/mL and the “IC50 of cell killing, NCI-H441 cells” value was 416 ng/mL.
In the case of B8, the “% kill at 10 µg/mL, A431 cells” value is reported as 85%, the “% kill at 10 µg/mL, HPAF-II cells” value is reported as 73% and the “% kill at 10 µg/mL, NCI-H441 cells” value is reported as 63%. For the same binder, the “IC50 of cell killing, A431 cells” value was 13 ng/mL, the “IC50 of cell killing, HPAF-II cells” value was 5 ng/mL and the “IC50 of cell killing, NCI-H441 cells” value was 4 ng/mL.
In the case of B9, the “% kill at 10 µg/mL, A431 cells” value is reported as 92%, the “% kill at 10 µg/mL, HPAF-II cells” value is reported as 71% and the “% kill at 10 µg/mL, NCI-H441 cells” value is reported as 60%. The “IC50 of cell killing, A431 cells” value was 9 ng/mL, the “IC50 of cell killing, HPAF-II cells” value was 1 ng/mL and the “IC50 of cell killing, NCI-H441 cells” value was 10 ng/mL.
With B10 the “% kill at 10 µg/mL, A431 cells” value was 93%, the “% kill at 10 µg/mL, HPAF-II cells” value was 71% and the “% kill at 10 µg/mL, NCI-H441 cells” value was 60%. The “IC50 of cell killing, A431 cells” value was 10 ng/mL, the “IC50 of cell killing, HPAF-II cells” value was 3 ng/mL and the “IC50 of cell killing, NCI-H441 cells” value was 10 ng/mL.
B11 was tested, and the “% kill at 10 µg/mL, A431 cells” value was 78%, the “% kill at 10 µg/mL, HPAF-II cells” value was 72% and the “% kill at 10 µg/mL, NCI-H441 cells” value was 53%. For the same binder, the “IC50 of cell killing, A431 cells” value was 22 ng/mL, the “IC50 of cell killing, HPAF-II cells” value was 5 ng/mL and the “IC50 of cell killing, NCI-H441 cells” value was 5 ng/mL.

The binders below were run against T2, TFECDHis (extracellular domain of …) (assay: ELISA, coated TFECDHis; upper end of the group's range, tied to 011-vcMMAE by Table 7 (469)).
Protocol: as §1, §2
Binder B10 has an EC50 of 470 ng/mL.

What follows are binders tested against T2, TFECDHis (extracellular domain of …) (assay: ELISA, coated TFECDHis; lower end of the group's range, tied to 011 unconjugated by Table 7 (373)).
For B4, the EC50 was 370 ng/mL.

The binders below were run against T1, membrane-bound tissue factor (TF) on … (assay: FACS, inhibition of binding of 100 nM FVIIa to TF on MDA-MB-231 cells; one representative experiment).
Protocol: MDA-MB-231 cells were washed in PBS to remove serum and plated in 96-well plates (100,000 cells per well). […] Cells were washed with FACS buffer and mean fluorescence intensity (MFI) was measured on a FACSCanto II (Becton Dickinson).
In the case of B2, the IC50 is reported as 1220 ng/mL.
For B4, the IC50 was 647 ng/mL.
